Results from patent US11078246B2, “Peptides binding to Bfl-1” (Dana-Farber Cancer Institute, Inc., priority 2015, dated 2021).

Assays:
Type in all cases: binding
tBID/FLAG-MCL-1 = molecular target: T1, tBID/FLAG-MCL-1 (Homo sapiens, UniProt Q07820); assay: Competition with tBID in 293T lysates (FLAG immunoprecipitation); details: 5 μM biotinylated peptide, non-covalent
T1 construct: expressed in transfected cells; host or cells: 293T
Experimental: (§1) 293T cells were maintained in DMEM containing 10% FBS and penicillin/streptomycin, and transfections performed with 2 μg pCMV plasmid containing HA-BFL-1ΔC C4S/C19S using X-tremeGENE 9 (Roche). For lysate experiments, cells were trypsinized 24 hours post-transfection, washed with PBS, and lysed by incubation with 1% CHAPS lysis buffer (150 mM NaCl, 50 mM Tris pH 7.4, 100 mM DTT). Protein concentration of the soluble fraction was measured using a BCA kit according to manufacturer's instructions (Thermo Scientific). […] Samples were then boiled in LDS buffer and subjected to western analysis using 1:1000 dilutions of HA (Sigma-Aldrich. #12CA5) and biotin (Abcam, #53494) antibodies. To evaluate the capacity of biotinylated SAHBs to compete with tBID for interactions with BFL-1 and MCL-1, 293T cells were transfected with either HA-BFL-1ΔC C4S/C19S or FLAG-MCL-1 in the p3XFLAG-CMV-10 vector (Sigma) as above. After 24 h, cells were trypsinized, washed with PBS, lysed in 1% CHAPS buffer, and the supernatant collected for protein concentration determination by BCA kit. […] The mixtures were then subjected to HA or FLAG (Sigma-Aldrich, F7425) immunoprecipitation, followed by western analysis using 1:1000 dilutions of HA, FLAG, biotin, and BID (Santa Cruz sc-11423) antibodies. […] Cells were harvested and lysed as above, and incubated overnight with anti-HA agarose beads (Pierce). […]

tBID/HA-BFL-1ΔC C4S/C19S = molecular target: T2, tBID/HA-BFL-1ΔC C4S/C19S (Homo sapiens, UniProt Q16548, C19S/C4S); assay: Competition with tBID in 293T lysates (HA immunoprecipitation); details: 5 μM biotinylated peptide, 0.25 μM tBID, 6 h
T2 construct: cDNA encoding BFL-1ΔC (aa 1-153) was cloned into the pET19b expression vector; expressed in transfected cells; host or cells: 293T
T2 sequence (Q16548 1-153 C4S/C19S): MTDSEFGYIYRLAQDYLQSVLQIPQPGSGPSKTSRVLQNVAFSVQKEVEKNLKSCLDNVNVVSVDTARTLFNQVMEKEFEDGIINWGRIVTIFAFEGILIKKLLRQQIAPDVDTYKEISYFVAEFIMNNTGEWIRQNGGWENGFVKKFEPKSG
Experimental: Protein concentration of the soluble fraction was measured using a BCA kit according to manufacturer's instructions (Thermo Scientific). […] After 24 h, cells were trypsinized, washed with PBS, lysed in 1% CHAPS buffer, and the supernatant collected for protein concentration determination by BCA kit. […] Cells were harvested and lysed as above, and incubated overnight with anti-HA agarose beads (Pierce). The beads were washed 3 times with lysis buffer, eluted by boiling in LDS buffer, and subjected to western analysis with HA and biotin antibodies. […] Biotin capture was accomplished by incubating the mixture with high-capacity SA agarose (Thermo Scientific) for 2 h at 4° C., followed by centrifugation and washing the pelleted beads with 3×1 mL lysis buffer.

MCL-1 = molecular target: T3, MCL-1 (Homo sapiens, UniProt Q07820); assay: SA pull-down from A375P lysates, MCL-1 western; details: A375P lysate, biotinylated peptides
T3 construct: we incubated A375P lysates with the corresponding biotinylated BIM SAHBs; endogenous in cells; host or cells: A375P melanoma cell lysate
Experimental: as §1

T1 sequence (Q07820 whole entry): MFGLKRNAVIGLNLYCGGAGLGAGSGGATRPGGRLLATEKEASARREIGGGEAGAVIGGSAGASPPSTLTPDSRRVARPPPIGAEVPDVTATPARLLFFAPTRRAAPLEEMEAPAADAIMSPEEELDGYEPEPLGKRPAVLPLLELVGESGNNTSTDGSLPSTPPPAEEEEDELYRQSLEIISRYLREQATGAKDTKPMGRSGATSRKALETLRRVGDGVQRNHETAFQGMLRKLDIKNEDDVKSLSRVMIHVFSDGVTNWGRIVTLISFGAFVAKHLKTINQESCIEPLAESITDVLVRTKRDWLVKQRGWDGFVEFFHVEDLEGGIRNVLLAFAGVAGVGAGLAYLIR

BIM SAHBA: stapled BIM BH3 peptide (aa 147-166) lacking the acrylamide-based warhead
competition with tBID for FLAG-MCL-1 (tBID/FLAG-MCL-1): equally effective | competition with tBID for HA-BFL-1 binding (tBID/HA-BFL-1ΔC C4S/C19S): incapable of competing with tBID | binding to MCL-1 (MCL-1): equivalent binding
